# According to patent publication US8669345 (Biogen, dated 2014):
# T1: 15 kDa acid fragment of sNgR310 (aa 27-aa 122) (rat, UniProt Q99M75 27-122)
# T1 construct: acid cleavage product of rat sNgR310
# T1 chain: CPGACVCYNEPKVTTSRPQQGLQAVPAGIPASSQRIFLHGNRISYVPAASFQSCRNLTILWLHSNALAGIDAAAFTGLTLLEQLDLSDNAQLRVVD
# T2: 35 kDa CNBr fragment of sNgR310 (aa 27-aa 229) (rat, UniProt Q99M75 27-229)
# T2 construct: CNBr cleavage product of rat sNgR310; also called 33/35 kDa doublet
# T2 chain: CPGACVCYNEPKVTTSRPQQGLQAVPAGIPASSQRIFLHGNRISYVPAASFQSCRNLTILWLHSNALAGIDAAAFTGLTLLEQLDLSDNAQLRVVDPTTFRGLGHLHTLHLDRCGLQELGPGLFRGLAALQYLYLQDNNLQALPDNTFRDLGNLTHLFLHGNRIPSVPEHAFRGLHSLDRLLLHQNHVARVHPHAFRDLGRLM
# T3: 10 kDa CNBr fragment of sNgR310 (aa 241-aa 310) (rat, UniProt Q99M75 241-310)
# T3 construct: CNBr cleavage product of rat sNgR310
# T3 chain: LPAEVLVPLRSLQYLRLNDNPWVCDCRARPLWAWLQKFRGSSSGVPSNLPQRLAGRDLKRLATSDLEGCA
# T4: peptide LDLSDNAQLR (Wild-type Fragment) (rat)
# T4 peptide: LDLSDNAQLR
# T5: peptide LDLSDDAELR (deaminated wild-type fragment)
# T5 construct: deamination at Asn115 and Gln117
# T5 peptide: LDLSDDAELR
# T6: peptide LDLASDNAQLR (Scrambled Fragment #1)
# T6 peptide: LDLASDNAQLR
# T7: peptide LDLASDDAELR (Scrambled Fragment #1, deaminated)
# T7 peptide: LDLASDDAELR
# T8: peptide LDALSDNAQLR (Scrambled Fragment #2)
# T8 peptide: LDALSDNAQLR
# T9: peptide LDALSDDAELR (Scrambled Fragment #2, deaminated)
# T9 peptide: LDALSDDAELR
# T10: peptide LDLSSDNAQLR (Scrambled Fragment #3)
# T10 peptide: LDLSSDNAQLR
# T11: peptide DNAQLRVVDPTT (rat)
# T11 peptide: DNAQLRVVDPTT
# T12: peptide LDLSDNAALRVVDPTT (Q117A)
# T12 construct: also called Gln17Ala (so in the source)
# T12 peptide: LDLSDNAALRVVDPTT
# T13: peptide LDLSDNAQLHVVDPTT (R119H)
# T13 construct: also called Arg119His; R11911 (so in the source)
# T13 peptide: LDLSDNAQLHVVDPTT
# T14: tryptic peptide AAAFTGLTLLEQLDLSDNAQLR (rat)
# T14 construct: tryptic digest peptide of rat sNgR310
# T14 peptide: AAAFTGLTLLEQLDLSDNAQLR
# T15: Nogo receptor-1 (species and construct not stated)
# T15 sequence (Q9BZR6 27-447, species assumed, looked up): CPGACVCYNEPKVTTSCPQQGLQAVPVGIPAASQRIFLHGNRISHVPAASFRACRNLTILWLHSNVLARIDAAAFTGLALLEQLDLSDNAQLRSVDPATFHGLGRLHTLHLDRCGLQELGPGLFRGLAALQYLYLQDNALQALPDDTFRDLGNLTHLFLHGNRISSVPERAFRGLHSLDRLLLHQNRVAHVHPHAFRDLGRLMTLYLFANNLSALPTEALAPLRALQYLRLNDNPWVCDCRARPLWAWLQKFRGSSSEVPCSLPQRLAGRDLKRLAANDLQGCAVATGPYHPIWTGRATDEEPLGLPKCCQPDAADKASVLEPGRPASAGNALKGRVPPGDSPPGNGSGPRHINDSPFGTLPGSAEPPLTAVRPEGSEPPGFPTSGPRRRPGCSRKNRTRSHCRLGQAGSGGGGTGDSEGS
# B1: monoclonal antibody 7E11 (antibody, V domains shown)
# VH: VQLQESGAELVMPGASVKMSCKASGYTFTDYWMHWVKQRPGQGLEWIGAIDPSDSYSSYNQNFKGKATLTVDGSSSTAYMQLSSLTSEDSAVYYCARRITEAGAWFAYWGQGTTVT
# VL: DVVMTQTPLSLPVSLGDQASISCRSSQSLVHSNGNTYLHWYLQKPGQSPKLLIYKVSNRFSGVPDRFSGSGSGTDFTLKISRVDAEDLGVYFCSQSTHVPFTFGGGTKLEIKR
# notes: murine IgG1, kappa; immunogen: peptide of rat NgR1 residues 110-125; also called mAb 7E11; HB 7E11 (ATCC PTA-4587)
# Legend:
# [1] = biological target: T1, 15 kDa acid fragment of sNgR310 (aa …); assay: western blot
# Protocol: (§1) A recombinant fragment of the rat NgR1 that contains all 8 LRR domains and the N- and C-terminal caps (sNgR310) was treated with either acid or cyanogen bromide (CNBr) and separated the fragments by gel electrophoresis.
# [2] = biological target: T2, 35 kDa CNBr fragment of sNgR310 (aa …); assay: western blot
# Protocol: as §1
# [3] = biological target: T3, 10 kDa CNBr fragment of sNgR310 (aa …); assay: western blot
# Protocol: as §1
# [4] = biological target: T4, peptide LDLSDNAQLR (Wild-type Fragment); assay: MS of peptides bound by 7E11
# [5] = biological target: T5, peptide LDLSDDAELR (deaminated …); assay: MS of peptides bound by 7E11
# [6] = biological target: T6, peptide LDLASDNAQLR (Scrambled Fragment …); assay: MS of peptides bound by 7E11
# [7] = biological target: T7, peptide LDLASDDAELR (Scrambled Fragment …); assay: MS of peptides bound by 7E11
# [8] = biological target: T8, peptide LDALSDNAQLR (Scrambled Fragment …); assay: MS of peptides bound by 7E11
# [9] = biological target: T9, peptide LDALSDDAELR (Scrambled Fragment …); assay: MS of peptides bound by 7E11
# [10] = biological target: T10, peptide LDLSSDNAQLR (Scrambled Fragment …); assay: MS of peptides bound by 7E11
# [11] = biological target: T11, peptide DNAQLRVVDPTT; assay: endoprotease Asp-N digest of p-617
# [12] = biological target: T12, peptide LDLSDNAALRVVDPTT (Q117A); assay: ELISA, peptides immobilized on MaxiSorp plate
# [13] = biological target: T13, peptide LDLSDNAQLHVVDPTT (R119H); assay: ELISA, peptides immobilized on MaxiSorp plate
# [14] = biological target: T14, tryptic peptide AAAFTGLTLLEQLDLSDNAQLR; assay: tryptic digest of sNgR310, MS and sequence analysis
# [15] = biological target: T15, Nogo receptor-1 (species and construct …); assay: surface plasmon resonance (BIAcore) per the text; NgR1 construct not stated
binder,measurement,setting,value
B1,binding result,[1],binds
same,binding result,[2],binds
same,binding result,[3],no binding
same,binding result,[4],binds
same,binding result,[5],binds
same,binding result,[6],binds
same,binding result,[7],binds
same,binding result,[8],binds
same,binding result,[9],binds
same,binding result,[10],binds
same,binding result,[11],binds
same,fold increase of EC50 against the original peptide,[12],30 fold
same,fold increase of EC50 against the original peptide,[13],25 fold
same,binding result,[14],binds
same,Kd,[15],100 nM
